Data taken from US20120214241.

Legend:
SBS 30888 ZFN = experiment: cell_activity; conditions: paired with 30886 in G2019S heterozygous patient iPSC; pair more specific for G2019S mutant; value is % clones with monoallelic NHEJ (17% biallelic NHEJ)
SBS 30886 ZFN = experiment: cell_activity; conditions: paired with 30888 in G2019S heterozygous patient iPSC; value is % clones with monoallelic NHEJ (17% biallelic NHEJ)

Row | Sequence | activity (SBS 30888 ZFN) [%] | activity (SBS 30886 ZFN) [%]
1 | GCAAAGATTGCTGACTACAGCATTGCTC (double strand) [LRRK2 6055G>A (G2019S) target of 30888] | 46 | 
2 | TGATGGCAGCATTGGGATACAGTGTGAA (double strand) [LRRK2 target of 27865/27866/27867/27868/30886] |  | 46
